{"source": "patent US9248180B2", "about": "“IC31 nanoparticles” (Valneva Austria GmbH, priority 2010, dated 2016)", "key": {"[1]": {"tested_on": "CD8+ cells from the lungs", "test": "Cytometric Bead Array of cytokines produced by CD8+ lung cells of vaccinated mice", "format": "in vivo, C57BL/6 mice", "settings": "immunizations d0, d13, d28"}, "[2]": {"test": "Viscosity and sterile-filterability of KLK in 10 mM Tris as a function of pH", "format": "physicochemical", "settings": "for Viscosity (cP): 2000 nmol/mL KLK in 10 mM Tris, no salt; for Sterile-filterable: 0.2 μm filter", "method": "For sterile filtration, appropriate viscosity of the mixture to be filtered is also critical. Viscosity can be measured e.g. on a Brookfield DV-E rotation viscometer at 20° C. using an LV61 spindle and can be reported as centipoise (cP=milliPascal seconds). Preferred compositions have a viscosity of less than 15 cP. Even more preferred compositions have viscosities of less than 12 cP or even less than 10 cP.\nOne of the key factors for sterile-filterable compositions is viscosity. At a viscosity >15 cP, sterile filtration through a 0.2 μm filter is no longer possible. The final viscosity of the nanoparticulate IC31® composition correlates to the final pH of the composition due to the fact that the viscosity of KLK in solution increases drastically with increasing pH, resulting in non-sterile-filterable formulations at a final pH of around 7.2."}, "[3]": {"settings": "CD8+ lung cells stimulated with Medium"}, "[4]": {"settings": "CD8+ lung cells stimulated with SVN19-28"}, "[5]": {"settings": "CD8+ lung cells stimulated with TRP-2180-188"}}, "note": "Values joined by “and” are separate entries in the source; they are usually repeats but may differ in a detail not shown here. Equal values may be shown once."}
{"sequence": "SVYDFFVWL [TRP-2180-188]", "values": [{"measurement": "GM-CSF", "setting": "[1]; [3]", "value": 46, "unit": "pg/mL"}, {"measurement": "IFN-γ", "setting": "[1]; [3]", "value": 41, "unit": "pg/mL"}, {"measurement": "IL-6", "setting": "[1]; [3]", "value": 109, "unit": "pg/mL"}, {"measurement": "TNF-α", "setting": "[1]; [3]", "value": 14, "unit": "pg/mL"}, {"measurement": "GM-CSF", "setting": "[1]; [4]", "value": 57, "unit": "pg/mL"}, {"measurement": "IFN-γ", "setting": "[1]; [4]", "value": 199, "unit": "pg/mL"}, {"measurement": "IL-2", "setting": "[1]; [4]", "value": 43, "unit": "pg/mL"}, {"measurement": "IL-6", "setting": "[1]; [4]", "value": 115, "unit": "pg/mL"}, {"measurement": "TNF-α", "setting": "[1]; CD8+ lung cells stimulated with SVN19-28de", "value": 9, "unit": "pg/mL"}, {"measurement": "GM-CSF", "setting": "[1]; [5]", "value": 48, "unit": "pg/mL"}, {"measurement": "IFN-γ", "setting": "[1]; [5]", "value": 301, "unit": "pg/mL"}, {"measurement": "IL-2", "setting": "[1]; [5]", "value": 33, "unit": "pg/mL"}, {"measurement": "IL-6", "setting": "[1]; [5]", "value": 185, "unit": "pg/mL"}, {"measurement": "IL-10", "setting": "[1]; [5]", "value": 56, "unit": "pg/mL"}, {"measurement": "TNF-α", "setting": "[1]; [5]", "value": 24, "unit": "pg/mL"}]}
{"sequence": "KLKLLLLLKLK [peptide component of IC31®]", "values": [{"measurement": "Viscosity (cP)", "setting": "[2]; pH 6.24", "value": 9.69, "unit": "cP"}, {"measurement": "Sterile-filterable", "setting": "[2]; pH 6.24", "value": "Yes"}, {"measurement": "Viscosity (cP)", "setting": "[2]; pH 6.4", "value": 8.06, "unit": "cP"}, {"measurement": "Sterile-filterable", "setting": "[2]; pH 6.4", "value": "Yes"}, {"measurement": "Viscosity (cP)", "setting": "[2]; pH 6.6", "value": 10.00, "unit": "cP"}, {"measurement": "Sterile-filterable", "setting": "[2]; pH 6.6", "value": "Yes"}, {"measurement": "Viscosity (cP)", "setting": "[2]; pH 6.73", "value": 10.00, "unit": "cP"}, {"measurement": "Sterile-filterable", "setting": "[2]; pH 6.73", "value": "Yes"}, {"measurement": "Viscosity (cP)", "setting": "[2]; pH 6.88", "value": 10.94, "unit": "cP"}, {"measurement": "Sterile-filterable", "setting": "[2]; pH 6.88", "value": "Yes"}, {"measurement": "Viscosity (cP)", "setting": "[2]; pH 7.03", "value": 11.25, "unit": "cP"}, {"measurement": "Sterile-filterable", "setting": "[2]; pH 7.03", "value": "Yes"}, {"measurement": "Viscosity (cP)", "setting": "[2]; pH 7.22", "value": 15.00, "unit": "cP"}, {"measurement": "Sterile-filterable", "setting": "[2]; pH 7.22", "value": "Yes/No*"}, {"measurement": "Viscosity (cP)", "setting": "[2]; pH 7.39", "value": 16.88, "unit": "cP"}, {"measurement": "Sterile-filterable", "setting": "[2]; pH 7.39", "value": "No"}, {"measurement": "Viscosity (cP)", "setting": "[2]; pH 7.7", "value": 16.88, "unit": "cP"}, {"measurement": "Sterile-filterable", "setting": "[2]; pH 7.7", "value": "No"}, {"measurement": "Viscosity (cP)", "setting": "[2]; pH 7.96", "value": 25.00, "unit": "cP"}, {"measurement": "Sterile-filterable", "setting": "[2]; pH 7.96", "value": "No"}, {"measurement": "Viscosity (cP)", "setting": "[2]; pH 8.4", "value": "21.88 cP and 24.38 cP"}, {"measurement": "Sterile-filterable", "setting": "[2]; pH 8.4", "value": "No"}, {"measurement": "Viscosity (cP)", "setting": "[2]; pH 8.8", "value": 87.50, "unit": "cP"}, {"measurement": "Sterile-filterable", "setting": "[2]; pH 8.8", "value": "No"}]}
